Measured values from patent US20120329994A1.

What was measured:
[1] = target: WNV DIII (residues 296-404) of the New York 1999 strain, expressed in E. coli and refolded (West Nile virus, New York 1999 strain) (UniProt Q9Q6P4); assay: SPR
[2] = target: WNV E ectodomain (residues 1-404) of the New York 1999 strain, expressed in E. coli and refolded (West Nile virus, New York 1999 strain) (UniProt Q9Q6P4); assay: SPR

Substance	Kd [1] [nM]	Kd [2] [nM]
pHu-E16 (plant-produced humanized E16 monoclonal antibody, made in N. benthamiana)	41	46
mHu-E16 (humanized E16 monoclonal antibody produced in CHO cells)	32	45
